Source: patent publication US20190071490A1 (BETH ISRAEL DEACONESS MEDICAL CENTER, published 2019)

T1: human α-CGRP 1-37 (WT) (human, C-terminal amide; N-terminal biotin when captured on the SA chip; 125I-labelled in the radioligand assay)
T1 construct: also called α-human
T1 peptide: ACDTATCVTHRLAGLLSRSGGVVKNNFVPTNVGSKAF

T2: rat α-CGRP (1-37) (rat, C-terminal amide; N-terminal biotin when captured on the SA chip)
T2 construct: also called rat α (1-37); α-rat
T2 peptide: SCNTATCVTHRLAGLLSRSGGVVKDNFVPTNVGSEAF


Experiments:
human α-CGRP 1-37 (WT) = target: T1, human α-CGRP 1-37 (WT); experiment: Biacore, 37°C, Fab over CGRP on SA chip
Procedure, shortened: (§1)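 Fab analyte flowed over N-biotinylated CGRP captured at low density on a streptavidin chip in HBS-EP (pH 7.4), 1-min injections at 100 μL/min, at least 10 min dissociation.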

rat α-CGRP (1-37) = target: T2, rat α-CGRP (1-37); experiment: Biacore, 37°C, Fab over CGRP on SA chip
Procedure, shortened: as §1

Row | Binder | Kd (human α-CGRP 1-37 (WT)) | koff (human α-CGRP 1-37 (WT)) | Kd (rat α-CGRP (1-37)) | koff (rat α-CGRP (1-37)) | binding result (rat α-CGRP (1-37))
1 | G1 variant M49 Fab (Fab, V domains shown, Fab; constant domains as m1) VH: EVQLVESGGGLVQPGGSLRLSCAASGFTFSNYWISWVRQAPGKGLEWVAEIRSKSDNYATFYAEAVKGRFTISRDNAKNSLYLQMNSLRAEDTAVYYCTVYFDYGLAIQNYWGQGTLVTVSS VL: EIVLTQSPATLSLSPGERATLSCKASKNVTTYVSWYQQKPGQAPRLLIYAASNRYTGIPARFSGSGSGTDFTLTISSLEPEDFAVYYCSQSYNYPYTFGQGTKLEIK | 3.72 nM | 0.000595 s⁻¹ | 822 nM | 0.0148 s⁻¹ | 
2 | G1 variant M59 Fab (Fab, V domains shown, Fab; constant domains as m1) VH: EVQLVESGGGLVQPGGSLRLSCAASGFTFSNYWISWVRQAPGKGLEWVAEIRSKSDNNATFYAEAVKGRFTISRDNAKNSLYLQMNSLRAEDTAVYYCTVYFDYGLAIQNYWGQGTLVTVSS VL: EIVLTQSPATLSLSPGERATLSCKASKNVDTYVSWYQQKPGQAPRLLIYGASNRYSGIPARFSGSGSGTDFTLTISSLEPEDFAVYYCSQSYNYPYTFGQGTKLEIK | 3.28 nM | 0.000524 s⁻¹ | 683 nM | 0.0123 s⁻¹ | 
3 | G1 variant M62 Fab (Fab, V domains shown, Fab; constant domains as m1) VH: EVQLVESGGGLVQPGGSLRLSCAASGFTFSNYWISWVRQAPGKGLEWVAEIRSKSDNEATHYAEAVKGRFTISRDNAKNSLYLQMNSLRAEDTAVYYCTVYFDYGLAIQNYWGQGTLVTVSS VL: EIVLTQSPATLSLSPGERATLSCKASKNVGTYVSWYQQKPGQAPRLLIYGHSNRYTGIPARFSGSGSGTDFTLTISSLEPEDFAVYYCSQSYNYPYTFGQGTKLEIK | 5.86 nM | 0.000557 s⁻¹ | 242 nM | 0.00575 s⁻¹ | 
4 | G1 variant M56 Fab (Fab, V domains shown, Fab; constant domains as m1) VH: EVQLVESGGGLVQPGGSLRLSCAASGFTFSNYWISWVRQAPGKGLEWVAEIRSKSDNSATFYAEAVKGRFTISRDNAKNSLYLQMNSLRAEDTAVYYCTVYFDYGLAIQNYWGQGTLVTVSS VL: EIVLTQSPATLSLSPGERATLSCKASKNVDTYVSWYQQKPGQAPRLLIYGASNRYSGIPARFSGSGSGTDFTLTISSLEPEDFAVYYCSQSYNYPYTFGQGTKLEIK | 2.99 nM | 0.000479 s⁻¹ | 519 nM | 0.00935 s⁻¹ | 
5 | G1 variant M57 Fab (Fab, V domains shown, Fab; constant domains as m1) VH: EVQLVESGGGLVQPGGSLRLSCAASGFTFSNYWISWVRQAPGKGLEWVAEIRSKSDNEATHYAEAVKGRFTISRDNAKNSLYLQMNSLRAEDTAVYYCTVYFDYGLAIQNYWGQGTLVTVSS VL: EIVLTQSPATLSLSPGERATLSCKASKNVDTYVSWYQQKPGQAPRLLIYGASNRYSGIPARFSGSGSGTDFTLTISSLEPEDFAVYYCSQSYNYPYTFGQGTKLEIK | 3.08 nM | 0.000322 s⁻¹ | 1200 nM | 0.0104 s⁻¹ | 
6 | G1 variant M60 Fab (Fab, V domains shown, Fab; constant domains as m1) VH: EVQLVESGGGLVQPGGSLRLSCAASGFTFSNYWISWVRQAPGKGLEWVAEIRSKSDNRATFYAEAVKGRFTISRDNAKNSLYLQMNSLRAEDTAVYYCTVYFDYGLAIQNYWGQGTLVTVSS VL: EIVLTQSPATLSLSPGERATLSCKASKNVDTYVSWYQQKPGQAPRLLIYGASNRYSGIPARFSGSGSGTDFTLTISSLEPEDFAVYYCSQSYNYPYTFGQGTKLEIK | 5.69 nM | 0.000911 s⁻¹ | 1510 nM | 0.0272 s⁻¹ | 
7 | G1 variant M55 Fab (Fab, V domains shown, Fab; constant domains as m1) VH: EVQLVESGGGLVQPGGSLRLSCAASGFTFSNYWISWVRQAPGKGLEWVAEIRSKSDNEATHYADAVKGRFTISRDNAKNSLYLQMNSLRAEDTAVYYCTVYFDYGLAIQNYWGQGTLVTVSS VL: EIVLTQSPATLSLSPGERATLSCKASKNVATYVSWYQQKPGQAPRLLIYGASNRYSGIPARFSGSGSGTDFTLTISSLEPEDFAVYYCSQSYNYPYTFGQGTKLEIK | 2.99 nM | 0.000478 s⁻¹ | 325 nM | 0.00585 s⁻¹ | 
8 | G1 variant M54 Fab (Fab, V domains shown, Fab; constant domains as m1) VH: EVQLVESGGGLVQPGGSLRLSCAASGFTFSNYWISWVRQAPGKGLEWVAEIRSKSDNPATHYAEAVKGRFTISRDNAKNSLYLQMNSLRAEDTAVYYCTVYFDYGLAIQNYWGQGTLVTVSS VL: EIVLTQSPATLSLSPGERATLSCKASKNVATYVSWYQQKPGQAPRLLIYAASNRYLGIPARFSGSGSGTDFTLTISSLEPEDFAVYYCSQSYNYPYTFGQGTKLEIK | 11.2 nM | 0.00179 s⁻¹ | 120 nM | 0.00216 s⁻¹ | 
9 | G1 variant M58 Fab (Fab, V domains shown, Fab; constant domains as m1) VH: EVQLVESGGGLVQPGGSLRLSCAASGFTFSNYWISWVRQAPGKGLEWVAEIRSKSDNIATFYAEAVKGRFTISRDNAKNSLYLQMNSLRAEDTAVYYCTVYFDYGLAIQNYWGQGTLVTVSS VL: EIVLTQSPATLSLSPGERATLSCKASKNVDTYVSWYQQKPGQAPRLLIYGASNRYSGIPARFSGSGSGTDFTLTISSLEPEDFAVYYCSQSYNYPYTFGQGTKLEIK | 12.2 nM | 0.00195 s⁻¹ |  |  | no binding

Binders with a lower Kd (human α-CGRP 1-37 (WT)), results first:

Row | Kd (human α-CGRP 1-37 (WT)) | koff (human α-CGRP 1-37 (WT)) | Kd (rat α-CGRP (1-37)) | koff (rat α-CGRP (1-37)) | binding result (rat α-CGRP (1-37)) | Binder
10 | 1.76 nM | 0.000281 s⁻¹ | 127 nM | 0.00229 s⁻¹ |  | G1 variant M52 Fab (Fab, V domains shown, Fab; constant domains as m1; printed L561 read as L56I) VH: EVQLVESGGGLVQPGGSLRLSCAASGFTFSNYWISWVRQAPGKGLEWVAEIRSKSDNAATHYAEAVKGRFTISRDNAKNSLYLQMNSLRAEDTAVYYCTVYFDYGLAIQNYWGQGTLVTVSS VL: EIVLTQSPATLSLSPGERATLSCKASKNVTTYVSWYQQKPGQAPRLLIYGASNRYIGIPARFSGSGSGTDFTLTISSLEPEDFAVYYCSQSYNYPYTFGQGTKLEIK
11 | 2.34 nM | 0.000374 s⁻¹ | 106 nM | 0.00191 s⁻¹ |  | G1 variant M53 Fab (Fab, V domains shown, Fab; constant domains as m1; printed L561 read as L56I) VH: EVQLVESGGGLVQPGGSLRLSCAASGFTFSNYWISWVRQAPGKGLEWVAEIRSKSDNGATHYAEAVKGRFTISRDNAKNSLYLQMNSLRAEDTAVYYCTVYFDYGLAIQNYWGQGTLVTVSS VL: EIVLTQSPATLSLSPGERATLSCKASKNVTTYVSWYQQKPGQAPRLLIYGASNRYIGIPARFSGSGSGTDFTLTISSLEPEDFAVYYCSQSYNYPYTFGQGTKLEIK
12 | 2.54 nM | 0.000406 s⁻¹ | 294 nM | 0.0053 s⁻¹ |  | G1 variant M50 Fab (Fab, V domains shown, Fab; constant domains as m1) VH: EVQLVESGGGLVQPGGSLRLSCAASGFTFSNYWISWVRQAPGKGLEWVAEIRSKSDRSATHYAEAVKGRFTISRDNAKNSLYLQMNSLRAEDTAVYYCTVYFDYGLAIQNYWGQGTLVTVSS VL: EIVLTQSPATLSLSPGERATLSCKASKNVTTYVSWYQQKPGQAPRLLIYAASNRYTGIPARFSGSGSGTDFTLTISSLEPEDFAVYYCSQSYNYPYTFGQGTKLEIK
13 | 2.87 nM | 0.000459 s⁻¹ | 289 nM | 0.00521 s⁻¹ |  | G1 variant M61 Fab (Fab, V domains shown, Fab; constant domains as m1) VH: EVQLVESGGGLVQPGGSLRLSCAASGFTFSNYWISWVRQAPGKGLEWVAEIRSQSDNSATFYAEAVKGRFTISRDNAKNSLYLQMNSLRAEDTAVYYCTVYFDYGLAIQNYWGQGTLVTVSS VL: EIVLTQSPATLSLSPGERATLSCKASKNVGTYVSWYQQKPGQAPRLLIYGHSNRYLGIPARFSGSGSGTDFTLTISSLEPEDFAVYYCSQSYNYPYTFGQGTKLEIK
14 | 0.82 nM | 0.000131 s⁻¹ | 65.6 nM | 0.00118 s⁻¹ |  | G1 variant M51 Fab (Fab, V domains shown, Fab; constant domains as m1; printed L561 read as L56I) VH: EVQLVESGGGLVQPGGSLRLSCAASGFTFSNYWISWVRQAPGKGLEWVAEIRSKSDGSATHYAEAVKGRFTISRDNAKNSLYLQMNSLRAEDTAVYYCTVYFDYGLAIQNYWGQGTLVTVSS VL: EIVLTQSPATLSLSPGERATLSCKASKNVTTYVSWYQQKPGQAPRLLIYGASNRYIGIPARFSGSGSGTDFTLTISSLEPEDFAVYYCSQSYNYPYTFGQGTKLEIK
